T1: Bet v 1.0401 (Betula pendula, UniProt P43177)
T1 construct: gene BETV1D; full-length non-fusion protein, no tag, pET28b (Nco I/Eco RI), E. coli BL21 Star (DE3), codon-optimized gene, batch B purified without denaturation
T1 sequence (P43177 2-160): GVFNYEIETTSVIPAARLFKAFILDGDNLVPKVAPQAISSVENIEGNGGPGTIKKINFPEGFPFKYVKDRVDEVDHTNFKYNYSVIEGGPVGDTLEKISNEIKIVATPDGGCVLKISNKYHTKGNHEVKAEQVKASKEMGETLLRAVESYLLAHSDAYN


What was measured:
Bet v 1.0401 = target: T1, Bet v 1.0401; test: ANS fluorescence titration, nonlinear regression; type: binding
P43177 = test: dynamic light scattering; DLS in aqueous solution at a concentration of 1 mg/ml; conditions: other: dynamic light scattering
[1] = target: Recombinant Bet v 1.0401 production batch A (birch) (UniProt P43177); test: SEC-MALS; online HPSEC-light scattering (refractive index and right-angle light scattering), 0.5 ml/min, 0.1 M sodium phosphate pH 6.5, 150 mM sodium chloride

Kd (Bet v 1.0401)	percent of the protein as multimers of more than 2,000 kDa [1]	percent of the protein as small oligomers of 70–80 kDa [1]	stoichiometry N [1]	Molecule	percent of the protein as aggregates (RH 16 nm) by DLS (P43177)
21.2 µM	–	–	–	O=S(=O)(O)c1cccc2cccc(Nc3ccccc3)c12 [8-anilino-1-naphtalenesulfonic acid]	–
–	2%	12%	4	Recombinant Bet v 1.0401 production batch A (protein) MGVFNYEIETTSVIPAARLFKAFILDGDNLVPKVAPQAISSVENIEGNGGPGTIKKINFPEGFPFKYVKDRVDEVDHTNFKYNYSVIEGGPVGDTLEKISNEIKIVATPDGGCVLKISNKYHTKGNHEVKAEQVKASKEMGETLLRAVESYLLAHSDAYN	34% RH of 16±8 nm

— paper PMC2795169, “The Influence of Recombinant Production on the Immunologic Behavior of Birch Pollen Isoallergens” (PLoS ONE, 2009)
